# Source: patent publication US20240247072A1 (KEYMED BIOSCIENCES, published 2024)
# T1: human CD70, full length, on CHO cells (CHO-human CD70-B07) (human, UniProt P32970 1-193)
# T1 construct: whole, on cells; Stably transfected CHO cells; also called CHO-CD70
# T1 sequence (looked up): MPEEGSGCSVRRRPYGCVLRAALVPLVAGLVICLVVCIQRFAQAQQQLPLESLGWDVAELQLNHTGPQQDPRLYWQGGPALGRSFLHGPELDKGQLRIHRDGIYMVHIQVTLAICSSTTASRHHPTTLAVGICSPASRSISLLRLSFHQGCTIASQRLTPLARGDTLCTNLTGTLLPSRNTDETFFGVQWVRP
# T2: recombinant trimeric protein of human CD70 extracellular region (human CD70 mIgG Fc (knob) / mouse IgG Fc … (human, UniProt P01863 98-330 = IgG part))
# T2 construct: The ELISA and Octet texts say only 'recombinant CD70 protein' / 'CM352 antigen'; also called recombinant human CD70 protein; recombinant CD70 protein
# T2 chain 1: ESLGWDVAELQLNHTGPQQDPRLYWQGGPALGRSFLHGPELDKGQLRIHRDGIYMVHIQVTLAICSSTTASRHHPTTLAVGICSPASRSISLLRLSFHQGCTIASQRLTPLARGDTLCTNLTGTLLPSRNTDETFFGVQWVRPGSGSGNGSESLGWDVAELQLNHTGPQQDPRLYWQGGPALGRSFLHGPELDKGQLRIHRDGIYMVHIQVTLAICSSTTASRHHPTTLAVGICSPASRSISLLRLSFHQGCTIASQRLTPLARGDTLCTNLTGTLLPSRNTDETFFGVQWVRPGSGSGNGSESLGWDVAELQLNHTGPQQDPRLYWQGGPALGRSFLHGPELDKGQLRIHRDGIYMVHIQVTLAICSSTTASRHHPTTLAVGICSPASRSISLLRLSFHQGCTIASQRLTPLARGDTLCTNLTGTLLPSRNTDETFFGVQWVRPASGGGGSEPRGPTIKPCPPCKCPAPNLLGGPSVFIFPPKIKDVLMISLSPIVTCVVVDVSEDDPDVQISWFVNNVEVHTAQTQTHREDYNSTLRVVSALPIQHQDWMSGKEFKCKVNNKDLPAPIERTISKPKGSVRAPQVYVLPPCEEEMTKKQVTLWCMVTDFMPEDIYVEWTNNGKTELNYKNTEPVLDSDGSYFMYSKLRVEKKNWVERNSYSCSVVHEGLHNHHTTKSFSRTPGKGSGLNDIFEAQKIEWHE
# T2 chain 2: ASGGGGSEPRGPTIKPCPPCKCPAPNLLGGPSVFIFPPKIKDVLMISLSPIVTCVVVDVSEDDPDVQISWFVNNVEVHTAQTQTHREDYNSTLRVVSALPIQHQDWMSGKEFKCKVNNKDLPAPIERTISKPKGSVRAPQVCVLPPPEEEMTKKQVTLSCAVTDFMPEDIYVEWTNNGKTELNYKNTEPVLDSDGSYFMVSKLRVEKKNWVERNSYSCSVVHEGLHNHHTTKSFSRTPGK
# Assays:
# [1] = biological target: T1, human CD70, full length, on CHO cells …; test: flow cytometry, hybridoma supernatant, cell surface human CD70
# [2] = biological target: T2, recombinant trimeric protein of human …; test: ELISA binding, hybridoma supernatant, human CD70
# [3] = biological target: T2, recombinant trimeric protein of human …; test: competition ELISA, chimeric IgG titrated, CD27 coated, biotin-CD70, human pair
# Experimental: The recombinant CD27 protein was coated at 1 μg/mL in a 96-well microtiter plate and incubated overnight at 4° C. The next day, the plate was washed 3 times with PBS, added with 200 μL of 2% defatted dry milk/PBS, blocked at room temperature for 2 hours, and washed once with PBS. The purified chimeric antibody was divided to 12 concentration gradients starting at 100 nM and diluted in a 1:3 gradient. […] of the antibody was added per well and incubated at room temperature for 30 minutes. […] The plate was washed 3 times with PBST and PBS and dried by spinning. A secondary antibody Streptavidin-coupled horseradish peroxidase SA-HRP (BD bioscience, cat. No: 6222697) was diluted with 0.5% BSA in a ratio of 1:8000. 100 μL of the diluent was added into each well and incubated at room temperature for 30 minutes. The plate was washed 3 times with PBST and PBS and dried by spinning. 100 μl of color development solution (TMB solution, Sigma, Cat. No: T2885) was added into each well and protected from light at 37° C. for reaction. After the substrate developed moderately, 50 μl of H₂SO₄ was added into each well to terminate the reaction. The OD450 nm was determined by using an enzyme-linked detector within 30 minutes, and the data was collected. The results were calculated by using Graph Pad Prism 5 software.
# [4] = biological target: T1, human CD70, full length, on CHO cells …; test: flow cytometry, chimeric IgG on CHO-human CD70 cells
# Experimental: Different cells in logarithmic growth phase were taken, blocked with 3% BSA for 30 minutes, and plated to a 96-well U-plate at 5×10⁴ cells/100 μL. The centrifuge was performed at 1100 rpm for 3 minutes. The supernatant was discarded and the cells were gently tapped to be loosening. 50 μL of gradient diluted antibody was added (antibody concentration: from 30 μg/mL, 3-fold dilution for 5 gradients) per well, and incubated at 4° C. for 1 hour. After incubation, 180 μL of 0.5% BSA was added to each well for washing 3 times. 30 μL/well of secondary antibody AlexaFluro647 anti-human IgG (Jackson Immuno Research, Cat. No: 109-606-170) was added and incubated at 4° C. for 45 minutes. At the end of the incubation, each well was washed 3 times with 180 μL of 0.5% BSA and finally resuspended in 50 μL of PBS for iQue (Intellicyt, USA) assay.
binding result [1],binding result [2],IC50 [3],EC50 [4],Binder
binds,binds,–,–,"4H6-A6 hybridoma antibody (antibody, V domains shown, Mouse antibody in hybridoma culture supernatant) VH: QVQLKQSGPGLVQPSQKLSITCTVSGFSLTTYGVHWIRQSPVKGLEWLGVIWTTGVVDYNAAFISRLNITKDNSKSQIFFKMNSLQTNDTAMYYCARNSYYGNLYVMDYWGQGTSVTVSS VL: DIVLTQSPASLPIFLGQRATISCRASRSVSASGYTFMHWYQQKPGQPPKLLIYLVSNLESGVPARFSGSGSGTDFTLNIHPVEEEDAATYYCQHSREFPLTFGAGTKLELK"
binds,binds,–,–,"16J15-H3 hybridoma antibody (antibody, V domains shown, Mouse antibody in hybridoma culture supernatant) VH: QVQLKQSGPGLVQPSQSLSITCTVSNFSLSTYGVHWVRQSPGKGLEWLGVIWGGGYTDYNAAFISRLTISKDNSKSQVFFKMNSLQADDTAIYYCARNNYYGNLYAMDYWGQGTSVTVSS VL: DIVLTQSPASLPVSLGQRATISCRANKSVSASGYSFMHWYQQKPGQPPKLLIYLASNLDSGVPARFSGSGSGTDFTLNIHPVEEEDTATYYCQHSREFPLTFGAGTKLELK"
binds,binds,–,–,"10C19-D11 hybridoma antibody (antibody, V domains shown, Mouse antibody in hybridoma culture supernatant) VH: QVQLQQSGPGLVQPSQSLSITCTVSGFSLTTYAVHWFRQSPGQGLEWLGVIWSTGITDFNAAFISRLNINKDSSKSQIFFKMISLQPNDTAIYYCGRNSYYGNLYAMDYWGQGTSVTVSS VL: DIVLTQSPTSLAVSLGQRATISCRASKSVSASGYNFMHWYQQKPGQPPKLLIYLASNLESGVPARFSGSGSETDFTLNIHPVEEGDAATYYCQHSRELPLTFGAGTKLELK"
binds,binds,–,–,"1H21-D5 hybridoma antibody (antibody, V domains shown, Mouse antibody in hybridoma culture supernatant) VH: QVQLKQSGPGLVQPSQSLSITCTVSGFSLTSYGIHWVRQSPGKGLEWLGVIWSGGSTDFNAAFISRLSISKDNSKSQVFFKVISLQANDTAIYYCGRNSYYGNLYAMDYWGQGTSVTVSS VL: DIVLTQSPTSLAVSLGQRATISCRASKSVSASGYSFMHWYQQKPGQPPKLLIYLASNLESGVPARFSGSGSGTDFTLNIHPVEEEDAATYYCQHSRELPLTFGAGTKLELK"
binds,binds,–,–,"17A9-G5 hybridoma antibody (antibody, V domains shown, Mouse antibody in hybridoma culture supernatant) VH: QVQLKQSGPGLVQPSQSLSITCTVSGFSLTTYGVHWVRQSPGKGLEWLGVIWSAGITDYNAPFISRLSITKDNSKSQVFFKMNSLQADDTAIYYCARNDYYGNLYAMDYWGQGTSVTVSS VL: DIVLTQSPASLAVSLGQRATISCRANKSVSASGYTFMHWYQQKPGQPPKLLIYLVSNLASGVPARFSGSGSGTDFTLNIHPVEGEDAATYYCQHSREFPLTFGAGTKLELK"
binds,binds,–,–,"42H19-G4 hybridoma antibody (antibody, V domains shown, Mouse antibody in hybridoma culture supernatant) VH: QVQLKQSGPGPVQPSQSLSITCTVSDFSLTIFGIHWVRQSPGKGLEWLGVIWRDGSTDYNVALMSRLNITKDNSKSQVFFKMNSLQTDDTAIYYCAKNRRYDYAWFPYWGQGTLVSVSA VL: DIVLTQSPASLAVSLGQRATISCRASKSVSASGYSFLHWYQQKPGQPPKLLIYLTSNLESGVPARFSGSGSGTDFTLNIHPVEEEDAATYYCQHSRDFPPTFGAGTKLELK"

# Second part, the binder before the results:
Binder,binding result [1],binding result [2],IC50 [3],EC50 [4]
"27A3 chimeric antibody (antibody, V domains shown) VH: EVQLQESGPGLVQPSQSLSITCTVSGFSLTTYAVHWVRQSPGKGLEWLGVIWSTGITDYNADFISRLSISKDNSKSQVFFKMDSLQSDDTAIYFCARNHYYGNLNAMDYWGQGTSVTVSS VL: DIVLTQSPASLAVSLGQRATISCRASKSVSTSGYSFMHWYQQKPGQPPKLLIYLASNLESGVPARFSGSGSGTDFTLNIHPVEEEDAATYYCQHSRELPYTFGGGTKLEIK",–,–,0.08 nM,4.07 nM
"14C12 chimeric antibody (antibody, V domains shown) VH: EVQLQQSGPELVKPGASVKMSCKASGYTFTDYVIHWVKQKPGQGLEWIGYLHPYNDDTKYNEKFKGKATLTSDKSSSTAYMELSSLTSEDSAVYYCARRGYYDYAWFADWGQGTLVTVSA VL: DIVLTQSPASLAVSLGQRATISCRASKSVSASGYTWIHWYQQKPRQAPKLLIYLASNLESGVPARFSGSGSGTDFTLNIHPVEEEDAATYYCQHSRELPPTFGGGTKLEIK",–,–,0.1 nM,15 nM
"36E7-D6 hybridoma antibody (antibody, V domains shown, Mouse antibody in hybridoma culture supernatant) VH: QVQLKQSGPGLVQPSQSLSITCTVSDFSLTIFGVHWVRQSPGKGLEWLGVIWRDGSTDYNAALMSRLNITKDNSKSQVFFKMNSLQTDDTAIYYCAKNRRYDYAWFPYWGQGTLVSVSA VL: DIVLTQSPASLAVSLGQRATISCRASKSVSASGYSFLHWYQQKPGQPPKLLIYLTSNLESGVPARFSGSGSGTDFTLNIHPVEEEDAATYYCQHSRDFPPTFGAGTKLELK",binds,binds,–,–
"2B12 chimeric antibody (antibody, V domains shown) VH: QVQLQQSGPGLVQPSQSLSITCTVSGFSLTTYAVHWVRQSPGKGLEWLGVIWSTGITDYNAAFISRLSISKDNSKSQVFFKMNSLQSDDIAIYYCARNPYYGNLNAMDYWGQGTSVTVSS VL: DIVLTQSPASLAVSLGQRATISCRASKSVDTSGYSFMHWYQQKPGQPPKLLIYLASNLESGVPARFSGSGSGTDFTLNIHPVEEEDAATYYCQHSRELPLTFGAGTKLELK",–,–,0.11 nM,17.7 nM
"32D1 chimeric antibody (antibody, V domains shown) VH: EVQLQQSGPELVKPGASLKMSCKASGYTFTDYVIHWVKQKPGQGLEWIGYLHPYNDDTKYNEKFKGKATLTSDKSSSTAYMELNSLTSEDSAVYYCARRGYYDYAWFADWGQGTLVTVSA VL: DIVLTQSPASLAVSLGQRATISCKASKSVSASGYTWMHWYQQKPGQAPKLLIYLASNLESGVPARFSGSGSGTDFTLNIHPVEEEDAATYYCQHSRELPPTFGGGTKLEIK",–,–,0.1 nM,12.1 nM
